The values that follow come from PMC3022821, “Glycogen synthase kinase-3β inactivation inhibits tumor necrosis factor-α production in microglia by modulating nuclear factor κB and MLK3/JNK signaling cascades” (Journal of Neuroinflammation, 2010).

This data set deals with the molecule itself. The data set is described as follows: immunoprecipitation and non-reducing SDS-PAGE; BV-2 lysates, IP with goat anti-MLK3; precipitates separated by SDS-PAGE without DTT; blot with rabbit anti-MLK3; disulfide-linked dimer; cells with or without LPS (100 ng/ml).

B1: Mixed lineage kinase 3 (MLK3) (natural protein, mouse (endogenous in BV-2), UniProt Q80XI6 1-850, looked up)
chain: MEPLKNLFLKSPLGSWNGSGSGGGGGTGGVRPEGSPKATAAYANPVWTALFDYEPNGQDELALRKGDRVEVLSRDAAISGDEGWWAGQVGGQVGIFPSNYVSRGGGPPPCEVASFQELRLEEVIGIGGFGKVYRGSWRGELVAVKAARQDPDEDISVTAESVRQEARLFAMLAHPNIIALKAVCLEEPNLCLVMEYAAGGPLSRALAGRRVPPHVLVNWAVQIARGMHYLHCEALVPVIHRDLKSNNILLLQPIEGDDMEHKTLKITDFGLAREWHKTTQMSAAGTYAWMAPEVIKASTFSKGSDVWSFGVLLWELLTGEVPYRGIDCLAVAYGVAVNKLTLPIPSTCPEPFAQLMADCWAQDPHRRPDFASILQQLEALEAQVLREMPRDSFHSMQEGWKREIQGLFDELRAKEKELLSREEELTRAAREQRSQAEQLRRREHLLAQWELEVFERELTLLLQQVDRERPHVRRRRGTFKRSKLRARDGGERISMPLDFKHRITVQASPGLDRRRNVFEVGAGDSPTFPRFRAIQLEPTESGQTWGRQSPRRLEDSSNGERRACWAWGPSSPKPGEAQNGRRRSRMDEATWYLDSDDSSPLGSPSTPPALNGNPPRPSPEPEEPRRAGPTERGNSSGTPKLIQRALLRGTALLASLGLGRDLQPPGGLSRERGESPTAPPPAQMPSPCPPELPSTPLIRLSQTTPDAHSSPTPGPLLLDLGVPSGQPSAKSPRREETRGRTVSPPPGISRSAPGTPGTPRSPPLGLISRPRPSPLRSRIDPWSFVSAGPRPSPLPSPQPAPRRAPWTLFPDSDPFWDSPPANPFRGGSQDCRTQTKDMGAQAPWAPEAGP
notes: Mixed lineage kinase 3 (MLK3), endogenous in murine BV-2 microglial cells; monomer of 105 kDa on SDS-PAGE; Precipitated with a goat anti-MLK3 antibody (Santa Cruz Biotechnology); the dimer is disulfide-linked and is seen only without DTT; source: endogenous, BV-2 cell lysate
On to B1, for which the “stoichiometry N” value turned out to be 2.
